Series [1] deals with XPB (core TFIIH);XPD (core TFIIH);p62 (core TFIIH);p52 (core TFIIH);p44 (core TFIIH);p34 (core TFIIH);TTDA/p8 … (Homo sapiens;Homo sapiens;Homo …, UniProt P19447;P18074;P32780;Q92759;Q13888;Q13889;Q6ZYL4;P23025 …, |||||||). The series is described as follows: cryo-EM structure (3.6 A); 2 mM Mg2+ at assembly; XPG E791A added (3:1 excess over TFIIH) but not visible in the map; glutaraldehyde-fixed gradient; DNA register shift not excluded; Complex assembly: 150 mM KCl, 20 mM KOH:HEPES pH 7.0, 10% glycerol, 2 mM MgCl2, 5 mM beta-mercaptoethanol; sucrose gradient pH 7.5, 4 C, 0.1% glutaraldehyde; helicase/triplex assays (turnover) left out. The note with it: copies: 1;1;1;1;1;1;1;1; fork, 29 bp duplex 1:21-49 with 2:1-29; unpaired arms 20 nt 5' (strand 1: 1-20) and 20 nt 3' (strand 2: 30-49).

Series [2] has as its target human TFIIH core module (core TFIIH), seven subunits: XPB, XPD, p62, p52, p44, p34, TTDA (human, UniProt P19447 1-782; P18074 1-760; P32780 1-548; Q92759 1-462; Q13888 1-395; Q13889 …). The series is described as follows: cell-based or functional assay.

B1: cryo-EM DNA scaffold (forked) (mixed)
DNA 1: CAAAGTCACGACCTAGACACTGCGAGCTCGAATTCACTGGAGTGACCTC
DNA 2: GAGGTCACTCCAGTGAATTCGAGCTCGCAACAATGAGCACATACCTAGT
For B1, in series [1], the binding result is on record as “binds”.

B2: XPG (natural protein, human, UniProt P28715 1-1186, looked up)
chain: MGVQGLWKLLECSGRQVSPEALEGKILAVDISIWLNQALKGVRDRHGNSIENPHLLTLFHRLCKLLFFRIRPIFVFDGDAPLLKKQTLVKRRQRKDLASSDSRKTTEKLLKTFLKRQAIKTAFRSKRDEALPSLTQVRRENDLYVLPPLQEEEKHSSEEEDEKEWQERMNQKQALQEEFFHNPQAIDIESEDFSSLPPEVKHEILTDMKEFTKRRRTLFEAMPEESDDFSQYQLKGLLKKNYLNQHIEHVQKEMNQQHSGHIRRQYEDEGGFLKEVESRRVVSEDTSHYILIKGIQAKTVAEVDSESLPSSSKMHGMSFDVKSSPCEKLKTEKEPDATPPSPRTLLAMQAALLGSSSEEELESENRRQARGRNAPAAVDEGSISPRTLSAIKRALDDDEDVKVCAGDDVQTGGPGAEEMRINSSTENSDEGLKVRDGKGIPFTATLASSSVNSAEEHVASTNEGREPTDSVPKEQMSLVHVGTEAFPISDESMIKDRKDRLPLESAVVRHSDAPGLPNGRELTPASPTCTNSVSKNETHAEVLEQQNELCPYESKFDSSLLSSDDETKCKPNSASEVIGPVSLQETSSIVSVPSEAVDNVENVVSFNAKEHENFLETIQEQQTTESAGQDLISIPKAVEPMEIDSEESESDGSFIEVQSVISDEELQAEFPETSKPPSEQGEEELVGTREGEAPAESESLLRDNSERDDVDGEPQEAEKDAEDSLHEWQDINLEELETLESNLLAQQNSLKAQKQQQERIAATVTGQMFLESQELLRLFGIPYIQAPMEAEAQCAILDLTDQTSGTITDDSDIWLFGARHVYRNFFNKNKFVEYYQYVDFHNQLGLDRNKLINLAYLLGSDYTEGIPTVGCVTAMEILNEFPGHGLEPLLKFSEWWHEAQKNPKIRPNPHDTKVKKKLRTLQLTPGFPNPAVAEAYLKPVVDDSKGSFLWGKPDLDKIREFCQRYFGWNRTKTDESLFPVLKQLDAQQTQLRIDSFFRLAQQEKEDAKRIKSQRLNRAVTCMLRKEKEAAASEIEAVSVAMEKEFELLDKAKGKTQKRGITNTLEESSSLKRKRLSDSKGKNTCGGFLGETCLSESSDGSSSEDAESSSLMNVQRRTAAKEPKTSASDSQNSVKEAPVKNGGATTSSSSDSDDDGGKEKMVLVTARSVFGKKRRKLRRARGRKRKT
With B2, the “XPD 5′–3′ helicase activity of core TFIIH (rate of DNA unwinding, stopped-flow kinetics), with XPG against without” value in series [2] was found to be 20 fold.

These data come from publication PMC6599211, “Structural basis of TFIIH activation for nucleotide excision repair” (Nature Communications, 2019).
